Residue numbers refer to the chain shown, from its start. Numbers in names are those of the source.
Columns and labels:
[1] = target: T1, human IL-2Rαβγc (on Kit225-STAT5 reporter cells, NK-92 cells, primary Treg cells) (human, UniProt P01589 22-272; P14784 27-551; P31785 23-369); assay: cell-based or functional assay
T1 sequence (looked up) 1: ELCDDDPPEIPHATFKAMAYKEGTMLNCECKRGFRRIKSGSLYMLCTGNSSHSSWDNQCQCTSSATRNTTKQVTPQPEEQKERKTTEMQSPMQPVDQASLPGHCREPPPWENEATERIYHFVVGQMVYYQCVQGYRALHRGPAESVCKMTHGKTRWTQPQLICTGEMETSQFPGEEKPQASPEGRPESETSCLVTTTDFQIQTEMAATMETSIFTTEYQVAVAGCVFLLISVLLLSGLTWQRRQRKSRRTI
T1 sequence (looked up) 2: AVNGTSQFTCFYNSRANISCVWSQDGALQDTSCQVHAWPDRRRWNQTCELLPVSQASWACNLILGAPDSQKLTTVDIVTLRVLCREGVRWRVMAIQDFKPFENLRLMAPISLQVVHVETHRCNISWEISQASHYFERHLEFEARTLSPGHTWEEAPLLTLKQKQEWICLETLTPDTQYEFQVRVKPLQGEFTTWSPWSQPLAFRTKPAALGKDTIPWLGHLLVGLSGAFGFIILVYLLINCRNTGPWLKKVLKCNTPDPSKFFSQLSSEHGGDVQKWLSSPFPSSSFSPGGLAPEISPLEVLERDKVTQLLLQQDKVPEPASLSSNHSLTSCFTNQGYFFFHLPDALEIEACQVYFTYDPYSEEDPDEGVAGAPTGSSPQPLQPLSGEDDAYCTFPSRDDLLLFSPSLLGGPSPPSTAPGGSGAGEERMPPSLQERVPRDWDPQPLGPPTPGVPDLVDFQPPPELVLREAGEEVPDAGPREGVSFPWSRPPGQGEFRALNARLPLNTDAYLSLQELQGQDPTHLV
T1 sequence (looked up) 3: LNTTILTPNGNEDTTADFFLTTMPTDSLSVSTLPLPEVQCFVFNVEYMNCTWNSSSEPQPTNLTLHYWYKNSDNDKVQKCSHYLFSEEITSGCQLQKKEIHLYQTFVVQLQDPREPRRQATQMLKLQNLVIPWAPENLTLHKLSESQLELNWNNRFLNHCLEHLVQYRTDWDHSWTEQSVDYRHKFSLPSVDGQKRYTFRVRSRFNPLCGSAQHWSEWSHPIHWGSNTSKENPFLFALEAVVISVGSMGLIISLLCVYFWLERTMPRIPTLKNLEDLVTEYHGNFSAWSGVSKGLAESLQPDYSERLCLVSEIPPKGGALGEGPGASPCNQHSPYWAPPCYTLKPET

[2] = target: T2, Human IL-2Rβ (Table 7B) (human, UniProt P14784 27-239, limits assumed); assay: SPR (Biacore T200)
T2 sequence (looked up): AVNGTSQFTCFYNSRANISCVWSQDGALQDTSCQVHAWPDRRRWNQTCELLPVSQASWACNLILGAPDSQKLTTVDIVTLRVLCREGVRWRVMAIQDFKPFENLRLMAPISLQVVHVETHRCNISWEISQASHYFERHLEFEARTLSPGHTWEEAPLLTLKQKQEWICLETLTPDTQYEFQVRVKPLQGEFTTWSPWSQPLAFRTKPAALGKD

[3] = target: T3, human IL-2Rβγc (on DERL-7 cells, U2OS IL2RB/IL2RG cells, CD25 knockout Kit225-STAT5 cells, primary CD8+ CTLs) (human, UniProt P14784 27-551; P31785 23-369); assay: cell-based or functional assay
T3 sequence (looked up) 1: T1 sequence (looked up) 2
T3 sequence (looked up) 2: T1 sequence (looked up) 3

[4] = target: T3, human IL-2Rβγc (on DERL-7 cells, U2OS …); assay: cell-based or functional assay; remark: listed apart in the source
[5] = target: T4, mouse IL-2Rαβγc (on CTLL2-STAT5 reporter cells) (mouse, UniProt P01590 22-268; P16297 27-539; P34902 23-369); assay: cell-based or functional assay
T4 sequence (looked up) 1: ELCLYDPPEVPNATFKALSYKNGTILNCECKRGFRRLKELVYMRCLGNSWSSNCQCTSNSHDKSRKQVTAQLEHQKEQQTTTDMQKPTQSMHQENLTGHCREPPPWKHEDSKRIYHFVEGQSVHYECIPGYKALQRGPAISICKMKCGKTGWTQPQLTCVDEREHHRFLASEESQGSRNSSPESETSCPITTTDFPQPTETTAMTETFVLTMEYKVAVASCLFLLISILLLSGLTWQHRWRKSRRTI
T4 sequence (looked up) 2: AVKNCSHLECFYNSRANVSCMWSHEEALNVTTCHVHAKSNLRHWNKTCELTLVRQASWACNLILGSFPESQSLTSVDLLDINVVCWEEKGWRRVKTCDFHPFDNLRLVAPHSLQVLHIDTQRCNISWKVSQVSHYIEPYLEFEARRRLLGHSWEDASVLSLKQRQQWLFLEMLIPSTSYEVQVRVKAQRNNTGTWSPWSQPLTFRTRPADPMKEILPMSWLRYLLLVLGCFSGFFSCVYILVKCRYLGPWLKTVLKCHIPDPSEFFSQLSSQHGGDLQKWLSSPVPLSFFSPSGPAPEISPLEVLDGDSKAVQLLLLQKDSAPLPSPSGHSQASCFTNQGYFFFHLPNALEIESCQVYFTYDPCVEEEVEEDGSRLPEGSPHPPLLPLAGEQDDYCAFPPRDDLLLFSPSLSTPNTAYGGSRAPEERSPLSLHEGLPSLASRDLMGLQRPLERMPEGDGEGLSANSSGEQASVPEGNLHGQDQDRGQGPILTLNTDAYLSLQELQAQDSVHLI
T4 sequence (looked up) 3: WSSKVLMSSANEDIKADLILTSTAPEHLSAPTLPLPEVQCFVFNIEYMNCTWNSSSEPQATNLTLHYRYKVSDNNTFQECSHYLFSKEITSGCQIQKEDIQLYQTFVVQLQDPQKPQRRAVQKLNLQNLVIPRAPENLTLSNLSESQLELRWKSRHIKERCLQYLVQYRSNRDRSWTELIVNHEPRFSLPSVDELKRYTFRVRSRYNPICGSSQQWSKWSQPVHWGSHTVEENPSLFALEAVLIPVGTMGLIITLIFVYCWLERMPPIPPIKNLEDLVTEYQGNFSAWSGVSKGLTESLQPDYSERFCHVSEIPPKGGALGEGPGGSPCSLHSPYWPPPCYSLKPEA

B1: Ald-6HIS_F41K/E60T (ligand)
chain: PTSSSTKKTQLQLEHLLLDLQMILNGINNYKNPKLTRMLTKKFYMPKKATELKHLQCLETELKPLEEVLNLAQSKNFHLRPRDLISNINVIVLELKGSETTFMCEYADETATIVEFLNRWITFSQSIISTLTGGSHHHHHH
- NK-92 EC50 Fold Change [1]: 11.4 fold
- NK-92 cell assay EC50 [1]: 0.079 nM
- Kd [2]: 1100 nM
- koff [2]: 0.47 s⁻¹
- kon [2]: 440000 M⁻¹ s⁻¹
- U2OS B/BG EC50 Fold Change [3]: 3.15 fold
- U2OS B/BG bridging cell assay EC50 [3]: 0.502 nM
- DERL7 EC50 Fold Change [4]: 2.01 fold
- DERL7 cell assay EC50 [4]: 0.036 nM
- STAT5-CTLL2 EC50 [5]: 103 nM
- STAT5-CTLL2 EC50 Fold Change [5]: 11400 fold

B2: Ald-6HIS_R37A/T40D/E60T (ligand)
chain: B1 chain with R37A, T40D, K41F
- NK-92 EC50 Fold Change [1]: 11 fold
- NK-92 cell assay EC50 [1]: 0.076 nM
- Kd [2]: 1900 nM
- koff [2]: 0.42 s⁻¹
- kon [2]: 220000 M⁻¹ s⁻¹
- U2OS B/BG EC50 Fold Change [3]: 2.53 fold
- U2OS B/BG bridging cell assay EC50 [3]: 0.403 nM
- DERL7 EC50 Fold Change [4]: 2.41 fold
- DERL7 cell assay EC50 [4]: 0.043 nM
- STAT5-CTLL2 EC50 [5]: 6.22 nM
- STAT5-CTLL2 EC50 Fold Change [5]: 689 fold

B3: Ald-6HIS_R37A/T40D/F41K (ligand)
chain: B1 chain with R37A, T40D, T60E
- NK-92 EC50 Fold Change [1]: 3.73 fold
- NK-92 cell assay EC50 [1]: 0.026 nM
- Kd [2]: 590 nM
- koff [2]: 0.24 s⁻¹
- kon [2]: 410000 M⁻¹ s⁻¹
- U2OS B/BG EC50 Fold Change [3]: 1.16 fold
- U2OS B/BG bridging cell assay EC50 [3]: 0.185 nM
- DERL7 EC50 Fold Change [4]: 0.71 fold
- DERL7 cell assay EC50 [4]: 0.013 nM
- STAT5-CTLL2 EC50 [5]: 12.7 nM
- STAT5-CTLL2 EC50 Fold Change [5]: 1400 fold

B4: Ald-6HIS_T40D/E60T (ligand)
chain: B1 chain with T40D, K41F
- NK-92 EC50 Fold Change [1]: 4.61 fold
- NK-92 cell assay EC50 [1]: 0.032 nM
- Kd [2]: 990 nM
- koff [2]: 0.36 s⁻¹
- kon [2]: 360000 M⁻¹ s⁻¹
- U2OS B/BG EC50 Fold Change [3]: 3.09 fold
- U2OS B/BG bridging cell assay EC50 [3]: 0.492 nM
- DERL7 EC50 Fold Change [4]: 1.55 fold
- DERL7 cell assay EC50 [4]: 0.028 nM
- STAT5-CTLL2 EC50 [5]: 2.2 nM
- STAT5-CTLL2 EC50 Fold Change [5]: 244 fold

B5: Ald-6HIS_R37A/F41K/E60T (ligand)
chain: B1 chain with R37A
- NK-92 EC50 Fold Change [1]: 9.03 fold
- NK-92 cell assay EC50 [1]: 0.063 nM
- Kd [2]: 860 nM
- koff [2]: 0.013 s⁻¹
- U2OS B/BG EC50 Fold Change [3]: 2.04 fold
- U2OS B/BG bridging cell assay EC50 [3]: 0.325 nM
- DERL7 EC50 Fold Change [4]: 1.46 fold
- DERL7 cell assay EC50 [4]: 0.026 nM
- STAT5-CTLL2 EC50 [5]: 95.2 nM
- STAT5-CTLL2 EC50 Fold Change [5]: 10500 fold

B6: Ald-6HIS_R37A/E60T (ligand)
chain: B1 chain with R37A, K41F
- NK-92 EC50 Fold Change [1]: 4.46 fold
- NK-92 cell assay EC50 [1]: 0.031 nM
- Kd [2]: 1100 nM
- koff [2]: 0.082 s⁻¹
- kon [2]: 75000 M⁻¹ s⁻¹
- U2OS B/BG EC50 Fold Change [3]: 3.28 fold
- U2OS B/BG bridging cell assay EC50 [3]: 0.522 nM
- DERL7 EC50 Fold Change [4]: 2.14 fold
- DERL7 cell assay EC50 [4]: 0.038 nM
- STAT5-CTLL2 EC50 [5]: 0.129 nM
- STAT5-CTLL2 EC50 Fold Change [5]: 14.3 fold

B7: Ald-6HIS_R37A/F41K (ligand)
chain: B1 chain with R37A, T60E
- NK-92 EC50 Fold Change [1]: 7.31 fold
- NK-92 cell assay EC50 [1]: 0.051 nM
- Kd [2]: 1000 nM
- koff [2]: 0.3 s⁻¹
- kon [2]: 300000 M⁻¹ s⁻¹
- U2OS B/BG EC50 Fold Change [3]: 2.32 fold
- U2OS B/BG bridging cell assay EC50 [3]: 0.37 nM
- DERL7 EC50 Fold Change [4]: 1.18 fold
- DERL7 cell assay EC50 [4]: 0.021 nM
- STAT5-CTLL2 EC50 [5]: 11 nM
- STAT5-CTLL2 EC50 Fold Change [5]: 1220 fold

B8: Ald-6HIS_R37A/T40D (ligand)
chain: B1 chain with R37A, T40D, K41F, T60E
- NK-92 EC50 Fold Change [1]: 2.06 fold
- NK-92 cell assay EC50 [1]: 0.014 nM
- Kd [2]: 730 nM
- koff [2]: 0.25 s⁻¹
- kon [2]: 340000 M⁻¹ s⁻¹
- U2OS B/BG EC50 Fold Change [3]: 2.83 fold
- U2OS B/BG bridging cell assay EC50 [3]: 0.451 nM
- DERL7 EC50 Fold Change [4]: 1.31 fold
- DERL7 cell assay EC50 [4]: 0.023 nM
- STAT5-CTLL2 EC50 [5]: 0.101 nM
- STAT5-CTLL2 EC50 Fold Change [5]: 11.2 fold

B9: Ald_F41/Y44A/l71G* (ligand)
chain: B1 chain with K41A, Y44A, T60E, L71G
- Kd [2]: 770 nM
- koff [2]: 0.3 s⁻¹
- kon [2]: 390000 M⁻¹ s⁻¹
